Measurements taken from article PMC11162321 (Structure (London, England : 1993), 2024).

B1: SipAC-Core (SipA residues 512-658), unlabelled (domain or fragment)
chain: TGPFSGLKFKQNSFLSTVPSVTNMHSMHFDARETFLGVIRKALEPDTSTPFPVRRAFDGLRAEILPNDTIKSAALKAQCSDIDKHPELKAKMETLKEVITHHPQKEKLAEIALQFAREAGLTRLKGETDYVLSNVLDGLIGDGSWRA
B2: FM-SipAC-ΔArm2 (SipA residues 425-658 labelled with fluorescein maleimide) (domain or fragment)
chain: TGETTSFDEVDGVTSKSIIGKPVQATVHGVDDNKQQSQTAEIVNVKPLASQLAGVENVKTDTLQSDTTVITGNKAGTTDNDNSQTDKTGPFSGLKFKQNSFLSTVPSVTNMHSMHFDARETFLGVIRKALEPDTSTPFPVRRAFDGLRAEILPNDTIKSAALKAQCSDIDKHPELKAKMETLKEVITHHPQKEKLAEIALQFAREAGLTRLKGETDYVLSNVLDGLIGDGSWRA
modifications: labeled with fluorescein maleimide (FM)

What was measured:
[1] = target: T1, F-actin (rabbit skeletal muscle α-actin, filamentous) (rabbit (Oryctolagus cuniculus), UniProt P68135 1-377); assay: other fluorescence titration
[2] = target: T1, F-actin (rabbit skeletal muscle …); assay: fluorescence polarisation

Binder | Kd [1] | Kd [2]
B1 | 81 nM | –
B2 | – | 120 nM
